Laboratory results reported in patent US20150268247A1 (UNIVERSITY OF ROCHESTER, published 2015).
Like-named read-outs stand apart in the source and are kept apart here.

B1: Cul5(N), human Cullin5 residues 2-384 with V341R and L345D mutations (post 3C cleavage) (other)
chain: GPMHMGGSTSNLLKNKGSLQFEDKWDFMRPIVLKLLRQESVTKQQWFDLFSDVHAVCLWDDKGPAKIHQALKEDILEFIKQAQARVLSHQDDTALLKAYIVEWRKFFTQCDILPKPFCQLEITLMGKQGSNKKSNVEDSIVRKLMLDTWNESIFSNIKNRLQDSAMKLVHAERLGEAFDSQLVIGVRESYVNLCSNPEDKLQIYRDNFEKAYLDSTERFYRTQAPSYLQQNGVQNYMKYADAKLKEEEKRALRYLETRRECNSVEALMECCVNALVTSFKETILAECQGMIKRNETEKLHLMFSLMDKVPNGIEPMLKDLEEHIISAGLADMVAAAETITTDSEKYREQLDTLFNRFSKLVKEAFQDDPRFLTARDKAYKAVVNDATIFK
notes: also called Cul5(2-384)
B2: CBFβ alone (human core-binding factor β subunit isoform 2) (other)
chain: MGHHHHHHLEVLFQGPPRVVPDQRSKFENEEFFRKLSRECEIKYTGFRDRPHEERQARFQNACRDGRSEIAFVATGTNLSLQFFPASWQGEQRQTPSREYVDLEREAGKVYLKAPMILNGVCVIWKGWIDLQRLDGMGCLEFDEERAQQEDALAQQAFEEARRRTREFEDRDRSHREEMEVRVSQLLAVTGKKTTRP

What was measured:
[1] = biological target: T1, Vif/EloB/C/CBFβ quaternary complex (full-length HIV-1 HXB2 Vif(1-192) / ElonginB 1-118 / ElonginC 17 (HIV-1 HXB2; human, UniProt P69720 2-192; Q15370 2-118; P83940 18-112; Q13951 2-182)
T1 sequence (P69720 2-192, tags left off, chain 1 of 3): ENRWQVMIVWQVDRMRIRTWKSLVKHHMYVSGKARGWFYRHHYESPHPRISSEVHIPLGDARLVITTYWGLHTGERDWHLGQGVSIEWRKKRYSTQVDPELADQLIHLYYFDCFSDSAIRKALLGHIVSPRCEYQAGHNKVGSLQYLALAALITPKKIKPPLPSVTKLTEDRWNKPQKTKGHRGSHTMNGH
T1 sequence (Q15370 2-118, tags left off, chain 2 of 3): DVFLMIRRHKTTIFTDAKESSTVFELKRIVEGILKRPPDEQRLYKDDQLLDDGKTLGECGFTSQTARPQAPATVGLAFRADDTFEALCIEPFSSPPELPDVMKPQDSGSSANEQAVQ
T1 sequence (P83940 18-112, tags left off, chain 3 of 3): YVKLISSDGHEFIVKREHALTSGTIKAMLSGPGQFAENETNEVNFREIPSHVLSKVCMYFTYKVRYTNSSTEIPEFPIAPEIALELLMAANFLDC

[2] = biological target: T1, Vif/EloB/C/CBFβ quaternary complex …; test: ITC at 30 °C, phosphate (ITC buffer B)
[3] = biological target: T2, VifC/EloB/C ternary complex (HIV-1 HXB2 Vif(95-192) / ElonginB 1-118 / ElonginC 17-112) (HIV-1 HXB2; human, UniProt P69720 95-192; Q15370 2-118; Q15369 18-112); test: ITC at 30 °C, phosphate (ITC buffer B)
T2 sequence (P69720 95-192, tags left off, chain 1 of 3): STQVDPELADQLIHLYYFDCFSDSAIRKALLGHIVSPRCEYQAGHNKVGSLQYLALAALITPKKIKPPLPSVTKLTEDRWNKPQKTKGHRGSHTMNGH
T2 sequence (Q15370 2-118, tags left off, chain 2 of 3): as the sequence (Q15370 2-118, tags left off, chain 2 of 3) above
T2 sequence (Q15369 18-112, tags left off, chain 3 of 3): as the sequence (P83940 18-112, tags left off, chain 3 of 3) above

[4] = biological target: T1, Vif/EloB/C/CBFβ quaternary complex …; remark: listed apart in the source
[5] = biological target: T1, Vif/EloB/C/CBFβ quaternary complex …; test: ITC at 30 °C, HEPES (ITC buffer A)
[6] = biological target: T2, VifC/EloB/C ternary complex (HIV-1 HXB2 …); test: ITC at 30 °C, HEPES (ITC buffer A)
[7] = biological target: T1, Vif/EloB/C/CBFβ quaternary complex …; remark: listed apart in the source
[8] = biological target: T2, VifC/EloB/C ternary complex (HIV-1 HXB2 …)
[9] = biological target: T1, Vif/EloB/C/CBFβ quaternary complex …; remark: listed apart in the source
[10] = biological target: T1, Vif/EloB/C/CBFβ quaternary complex …; test: ITC at 30 °C, difference of ΔH between ITC buffers A and B
[11] = biological target: T2, VifC/EloB/C ternary complex (HIV-1 HXB2 …); test: as above
[12] = biological target: T1, Vif/EloB/C/CBFβ quaternary complex …; remark: listed apart in the source
[13] = biological target: T1, Vif/EloB/C/CBFβ quaternary complex …; remark: listed apart in the source
[14] = biological target: B2; test: ITC at 303.15 K in ITC Buffer A, Cul5(N) titrated to CBFβ alone
[15] = biological target: T2, VifC/EloB/C ternary complex (HIV-1 HXB2 …); remark: listed apart in the source
[16] = biological target: T2, VifC/EloB/C ternary complex (HIV-1 HXB2 …); remark: listed apart in the source
[17] = biological target: T2, VifC/EloB/C ternary complex (HIV-1 HXB2 …); remark: listed apart in the source
[18] = biological target: T2, VifC/EloB/C ternary complex (HIV-1 HXB2 …); remark: listed apart in the source
[19] = biological target: T1, Vif/EloB/C/CBFβ quaternary complex …; test: ITC at 303 K, Cul5(N) in syringe, complex in cell, ITC buffer A
[20] = biological target: T2, VifC/EloB/C ternary complex (HIV-1 HXB2 …); test: as above
[21] = biological target: T2, VifC/EloB/C ternary complex (HIV-1 HXB2 …); test: ITC at 303.15 K in ITC Buffer A, CBFβ titrated to VifC/EloB/C

## B1
[1]
  N: 1.01
  ΔH: -8350
  ΔS: 11.2
[2]
  ΔH: -7.5 kcal/mol
[3]
  ΔH: -4.4 kcal/mol
[4]
  N: 1.01
  ΔH: -8350
  ΔS: 11.2
[5]
  ΔH: -9.2 kcal/mol
[6]
  ΔH: -5.2 kcal/mol
[7]
  ΔH: -3970
  ΔS: 21.7
[8]
  N: 0.948
  ΔH: -6430
  ΔS: 7.96
[9]
  N: 0.943
  ΔH: -6310
  ΔS: 23
[10]
  ΔΔH (HEPES against phosphate buffer): 1.7 kcal/mol
[11]
  ΔΔH (HEPES against phosphate buffer): 0.8 kcal/mol
[12]
  N: 1
  ΔH: -10100
  ΔS: 4.56
[13]
  Kd: 5 nM
[14]
  binding result: no binding
[15]
  N: 0.952
  ΔH: -3750
  ΔS: 17.4
[16]
  N: 1.03
  ΔH: -5250
  ΔS: 12.4
[17]
  N: 1.03
  ΔH: -5250
  ΔS: 12.4
[18]
  N: 0.887
  ΔH: -2250
  ΔS: 22.9
[19]
  -TΔS: -2.8 kcal/mol
  ΔG: -11.5 kcal/mol
  ΔH: -8.8 kcal/mol
[20]
  -TΔS: -3.8 kcal/mol
  Kd: 327 nM
  ΔG: -9 kcal/mol
  ΔH: -5.2 kcal/mol

## B2
[21]
  binding result: no binding
